Data: patent US20090098530A1 (CRUCELL HOLLAND B V, published 2009)

Molecular target: T1, human angiotensin-converting enzyme 2 (ACE2 protein) expressed on stably transfected PER.C6 cells (human, UniProt Q9BYF1 18-805)
T1 construct: also called human ACE2 receptor; PER.C6-ACE2
Experiment: flow cytometry on ACE2-transfected PER.C6 clones

T1 sequence (Q9BYF1 18-805 limits assumed): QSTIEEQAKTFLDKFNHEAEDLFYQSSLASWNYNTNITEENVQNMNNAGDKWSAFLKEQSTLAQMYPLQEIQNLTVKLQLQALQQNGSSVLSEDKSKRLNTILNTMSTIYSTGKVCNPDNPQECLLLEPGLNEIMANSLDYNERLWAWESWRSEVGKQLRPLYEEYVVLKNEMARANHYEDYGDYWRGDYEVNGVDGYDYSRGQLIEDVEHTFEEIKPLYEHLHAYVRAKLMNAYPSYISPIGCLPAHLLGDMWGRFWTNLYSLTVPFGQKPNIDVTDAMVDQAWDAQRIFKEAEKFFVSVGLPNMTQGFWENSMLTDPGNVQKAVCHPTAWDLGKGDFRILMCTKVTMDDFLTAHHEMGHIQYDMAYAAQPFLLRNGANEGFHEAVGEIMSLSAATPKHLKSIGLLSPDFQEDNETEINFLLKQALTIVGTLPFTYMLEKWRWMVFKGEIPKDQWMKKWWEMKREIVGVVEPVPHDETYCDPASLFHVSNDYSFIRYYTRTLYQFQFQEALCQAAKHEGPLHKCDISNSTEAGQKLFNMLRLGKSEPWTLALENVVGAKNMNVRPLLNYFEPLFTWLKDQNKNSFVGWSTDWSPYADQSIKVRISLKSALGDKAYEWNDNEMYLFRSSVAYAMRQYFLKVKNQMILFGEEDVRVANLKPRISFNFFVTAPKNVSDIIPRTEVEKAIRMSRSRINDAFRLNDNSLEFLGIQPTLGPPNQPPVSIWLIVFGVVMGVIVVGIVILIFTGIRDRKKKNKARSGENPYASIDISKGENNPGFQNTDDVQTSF

B1: wild-type SARS-CoV Frankfurt 1 S318-510 fragment, myc/His-tagged (ligand)
chain: not shown
- binding result: binds
